Reference: publication PMC5769772

Columns and labels:
hnRNPF (recombinant) [1] = molecular target: T1, hnRNPF (recombinant) (human, UniProt P52597 1-415); experiment: EMSA
T1 sequence: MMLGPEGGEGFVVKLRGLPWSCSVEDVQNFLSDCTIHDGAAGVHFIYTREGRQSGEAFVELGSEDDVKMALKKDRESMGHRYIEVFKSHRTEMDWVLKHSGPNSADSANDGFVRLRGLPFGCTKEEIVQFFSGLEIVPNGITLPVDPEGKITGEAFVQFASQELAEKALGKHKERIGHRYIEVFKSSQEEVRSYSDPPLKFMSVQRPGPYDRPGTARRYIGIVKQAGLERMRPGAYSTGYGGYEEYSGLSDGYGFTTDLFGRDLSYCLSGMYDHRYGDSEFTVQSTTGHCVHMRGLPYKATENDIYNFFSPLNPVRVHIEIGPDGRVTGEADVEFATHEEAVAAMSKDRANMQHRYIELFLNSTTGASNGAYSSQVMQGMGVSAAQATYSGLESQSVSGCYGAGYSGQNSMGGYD

hnRNPF (recombinant) [2] = molecular target: T1, hnRNPF (recombinant); experiment: EMSA; remark: listed apart in the source
hnRNPF (recombinant) [3] = molecular target: T1, hnRNPF (recombinant); experiment: pull-down

## GCUUUGGUGGUGGAAUGGUGCUAUGUGG (structured_RNA) [I-8]
hnRNPF (recombinant) [1]
  binding result: binds

## GCUUUGAUGAUGAAAUGAUGCUAUGUGG (ssRNA) [I-8 G4m]
hnRNPF (recombinant) [2]
  binding result: no binding

## GCUUUGGUGGUGGAAUGGUGCUAUGUGG (structured_RNA) [Biotin-I-8-wt]
hnRNPF (recombinant) [3]
  binding result: binds
